How the values were obtained:
[1] = target: recombinant HC1 (rHC1), wild type; heavy chain 1 of inter-α-inhibitor (human) (UniProt P19827); assay: SPR
complement C3 = assay: SPR

Chain of recombinant HC1 (rHC1), wild type; heavy chain 1 of inter-α-inhibitor (human) (P19827 35-672): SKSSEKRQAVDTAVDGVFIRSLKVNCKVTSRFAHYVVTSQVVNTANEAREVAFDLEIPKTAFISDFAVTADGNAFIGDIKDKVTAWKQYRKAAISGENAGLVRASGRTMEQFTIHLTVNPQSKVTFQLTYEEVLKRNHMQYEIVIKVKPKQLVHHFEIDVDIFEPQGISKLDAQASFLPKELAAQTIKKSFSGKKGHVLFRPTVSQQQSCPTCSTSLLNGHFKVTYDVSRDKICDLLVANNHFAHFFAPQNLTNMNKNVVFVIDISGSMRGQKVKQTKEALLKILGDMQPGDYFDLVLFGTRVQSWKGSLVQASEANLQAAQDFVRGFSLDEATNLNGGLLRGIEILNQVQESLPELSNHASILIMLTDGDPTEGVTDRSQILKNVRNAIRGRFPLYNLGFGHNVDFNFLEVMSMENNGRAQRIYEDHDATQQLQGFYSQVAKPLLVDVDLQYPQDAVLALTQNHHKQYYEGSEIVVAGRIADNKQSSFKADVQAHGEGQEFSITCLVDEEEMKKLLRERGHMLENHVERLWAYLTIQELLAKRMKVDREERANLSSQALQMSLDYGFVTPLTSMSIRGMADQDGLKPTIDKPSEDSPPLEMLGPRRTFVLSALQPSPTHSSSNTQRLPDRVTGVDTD

| Substance | Kd [1] | Kd (complement C3) |
| --- | --- | --- |
| TGFβ3-LAP (small latent complex of TGFβ3) (from UniProt P10600 24-300) | 10 nM | – |
| TGFβ1-LAP (small latent complex of TGFβ1) (from UniProt P01137 30-278) | 10 nM | – |
| inter-α-inhibitor (IαI) (from UniProt P19827 35-672; P19823 55-702) (complex) | – | 660 nM |

The remaining lines, values ahead:

| Kd [1] | Kd (complement C3) | Substance |
| --- | --- | --- |
| 10 nM | – | TGFβ2-LAP (small latent complex of TGFβ2) (from UniProt P61812 21-302) |
| 2 nM | – | LAP (latency-associated peptide from TGFβ1) (domain or fragment) |

From publication doi:10.1101/695700
